Patent publication US11994512B2, “Single-cell genomic methods to generate ex vivo cell systems that recapitulate in vivo biology with improved fidelity” (Massachusetts Institute of Technology, priority 2018, dated 2024)

B1: Q3UYK3 (protein, UniProt Q3UYK3 1-1264, looked up)
chain: MWVNPEEVLLANALWITERANPYFILQRRKGHGGDGGGGGGLAGLLVGTLDVVLDSSARVAPYRILYQTPDSLVYWTIACGGSRKEVTEHWEWLEQNLLQTLSIFENENDVTTFVRGKIQGIIAEYNKINDVKEDEDTEKFKEAIVKFHRLFGMPEEEKLVNYYSCSYWKGRVPRQGWMYLSINHLCFSSFLMGREAKLVIRWVDITQLEKNATLLLPDMIKVSTRSSEHFFSVFLNINETFKLMEQLANIAMRQLLDNEGFEQDRSLPKLKKKSPKKVSALKRDLDARAKSERYRALFRLPKDEKLDGHTDCTLWTPFNKMHILGQMFVSTNYICFTSKEENLCSLIIPLREVTIVEKADSCSVLPSPLSISTRNRMTFLFANLKDRDFLVQRISDFLQQTTSRIYSDKEFSGSCNSSDDEVYSRPSSLVSSSPQRSTSSDADGERPFNLNGNSVPTATQTLMTMYRRRSPEEFNPKLAKEFLKEQAWKIHFAEYGQGICMYRTEKTRELVLKGIPESMRGELWLLLSGAINEKATHPGYYEGLVEKSMGKYNLATEEIERDLHRSLPEHPAFQNEMGIAALRRVLTAYAFRNPNIGYCQAMNIVTSVLLLYAKEEEAFWLLVALCERMLPDYYNTRVVGALVDQGVFEELARDYVPQLYDCMQDLGVISTISLSWFLTLFLSVMPFESAVVVVDCFFYEGIKVIFQLALAVLDANVDKLLNCKDDGEAMTVLGRYLDSVTNKDSTLPPIPHLHSLLSDDVGPYPAVDIFRLIGTSYEKFGTIRADLIEQMRFKQRLKVIQTLEDTTKRNVVRTIVTETSFTIDELEELYALFKAEHLTSCYWGGSSNALDRHDPSLPYLEQYRIDFEQFKGMFVLLFPWACGTHSDVLASRLFQLLDENGDSLINFREFVSGLSAACHGDLTEKLKLLYKMHVLPEPSCDQDEPDSAFEATQYFFEDITPECTHVVGLDSRGKQSADDGFVTVSLKQDRGKRANSQENRNYLKLWTAENKSKSKTAKDLPKLNQGQFIELCKTMYNMFSEDPNEQELYHATAAVTSLLLEIGEVGKFFITQPAKEDAVPGPPCGQAIPGMLFPKKGSSQSYVVESTEPLTASLAVDSEEHSLGGQMEDIKLEDSSPRDNGACSSMLISDDDTKDDSSMSSYSVLSAGSHEEDKLHCEDIGEDTVLVRSSQGRATLPRSSSLDRDWAITFEQFLASLLTEPALVRYFDKPVCMMARVTSAKNIRMMGKPLTSASDYEISALSG
modifications: full-length
B2: Q3UR50 (protein, UniProt Q3UR50 1-1248, looked up)
chain: MPGLYCPTSWTPLPLTDSCVRAYAKGPCLSLRARLTYHNPQPQPVEGVFVYPLAEAEVVSGFEAEAAGRRVSFQLHSRRRSQAACCRALGPGLGTSTPRRCAQGHLVLNLAQARSTLVLPTGLVAAAGTMTVTLCSSRELPSRPDGVMHVALPTVFTPLAQPNLPGSPRSPGLCDDSPTSCFGVGSPEEERPTWEQPTATPDVFSGPARCPAPYTFSFEMLVTGPCLLAGLESPSHALRADALPHASSAATIRVTLAEGHQCDRALEILLHPSEPHQPHLMLETGSLSSAEYEAQVRARHDFQRLQQRDSGGERQVWFLQRRFHKDILLNPVLVLNFCPDLSSKPGHLNAATRELLFLLDGSGAGHKDAIVLAVKSLPAQTLVNLAIFGTLVQPLFPESRPCSDDTVQLICESIETLQTVNGPPDMLAVLDWALGQPQHRAYPRQMFLITAASPTAATTHQALEFMRWHRGAARCFSFALAPACRQLLHDLSVLSRGQAYFLRPGERLQPKLVQALRKALEPALSDISVDWFVPDAVEALLTPREIPALYPGDQLLGYCSLFRVDGFRSHALGGQEPGWQSLAGSVFPSPEEVLSATSPGTEPTHTTEPLGTGTVSAELSSPWAVGDSEQSMEALTDPVMDPGPNPSSDTAIWRRIFQSSYIREQYVLTHCSASPEPGPGSTCSSESPGSQGPGSPSGSRPLDPPSQQGCRSLAWVEPAGSRSCPLPVPPPSPFKVGAMSAEVLGRRQRAALAGRSLSSPSGRANPVPGRARHPSLDAIPDGLGPEPGQQLGQGLDDSGNLLSPAPLDWDMLMEPSFLFKPVPSSAESAPPAECLPPQAPRCHVVIRALCGEQPMCWEVGVGLEELWGPGDGSQPESLPMREAAWDQALHRLTAASVVQDNEQLALRGRAETRAEQGRVRRSWLRAIQTSKVSSAPSCFTCPVAVDATTREVLPGALQVWSSDPAELSGMSASQDQLAAAPLSTAVHSKGHQGGCSAGAWDLDLNDNSKSALGEPISPTGDHHGLPHQPPASSRLSLGRHRRLCSSNKGQTHENSNDGSNHDYLPLVRLQEAPGSFRLDEPFCAAVCIPQERLCRASPFAAHRASLSPTSASSPWAFLSPGIGQGDSATASCSQSPSSGSEGPGQVDSGRGSDTEASEGMERQDSSDLRGRTWATAVALAWLEHRCAAAFGEWELTASKADCWLRAQHLPDGLDLTALKAAARGLFLLLRHWDQNLQLHLLCYSPSNV
modifications: full-length
B3: Q3UW68 (protein, UniProt Q3UW68 1-665, looked up)
chain: MAHDAETSVVKFKNQDFRTLRDHCLSRGQLFIDDTFPAAASSIGEKLLRGKHLSKLEWKRPTSKDLPFYPPHFILEGASRFDIHQGIAGDCWFLAALGSLTQNPQCLQKILMDQSYSHQYAGIFQFRFWQCGQWVEVVIDDQLPVIGDNFLFVHPRGGNKEFWPCLMEKAYAKLLGSYSQLHYGYLPDALVDLTGGVVTIINLHSSPFDLLTTVKTAIQAGSMVACATENGLTEEAKVMENGLVSQHAYTVTGAEKIQYQGRWEDIIRLWNPWGKTEWKGRWKDGSKEWRETHDPRKSQLYENKEDGEFWMSCQDFQENFSCLFICNQIPITMDHGVTPNESWRQMRFTNQVISRNRAGGHGRDMQYVFSVQEHTAGNNVVVAFTIMPQSLNTEEERFPLQFQVFKVPQFQNVQGRLPPAFFSPFRSAAQGTKYVSKCNFTKSFHLNPGTYVVVTTANGKEVEFLLRIFLKMPDKHRDPSSNFNLRALKESLPENGSRNSISYTYMDQGLDIDATQLQSLLNQEFLTGPPGDTFSLDQCQSIMALMDLKVNGRLDQEEFARLRSRLIHCQHIFQSIQRRPGVLLSSDLWKVIENTDFLVGIFISSELLSLMALRYSDSSGRVSFPTLVCFLIRLETMAKAFRNLSKDGKGIYLTETEWMNLVMYS
modifications: full-length

Tested on: intracellular proteome of ENR+CD and ENR organoids
Assay: LC-MS/MS TMT proteomics of ENR+CD versus ENR organoids
Assay type: cell-based, C57BL/6 mice
Conditions: for Average logFC / M1-1 Log2 Median Normalized / M1-2 Log2 Median Normalized / M2-1 Log2 Median Normalized / M2-2 Log2 Median Normalized: protein abundance, ENR+CD versus ENR organoids; for Average logFC: aggregate of the four sample pairs; for M1-1 Log2 Median Normalized: replicate M1-1; for M1-1 Log2 Median Normalized / M1-2 Log2 Median Normalized / M2-1 Log2 Median Normalized / M2-2 Log2 Median Normalized: log2 ratio; for M1-2 Log2 Median Normalized: replicate M1-2; for M2-1 Log2 Median Normalized: replicate M2-1; for M2-2 Log2 Median Normalized: replicate M2-2; for change: up = enriched in ENR+CD, down = enriched in ENR, FDR<0.05 and log fold change cut-off

| Molecule | Average logFC | M1-1 Log2 Median Normalized | M1-2 Log2 Median Normalized | M2-1 Log2 Median Normalized | M2-2 Log2 Median Normalized | change |
| --- | --- | --- | --- | --- | --- | --- |
| B1 | −1.25 | −0.639 | −1.148 | −1.5035 | −1.709 | down |
| B2 | 1.46 | 1.678 | 1.171 | 1.6125 | 1.377 | up |
| B3 | −1.164 | −1.402 | −1.492 | −1.0855 | −0.676 | down |
